Assays:
Experiment in all cases: SPR
H3K14ac peptide = molecular target: H3K14ac peptide
H3K9ac peptide = molecular target: H3K9ac peptide
H4K5ac peptide = molecular target: H4K5ac peptide
H4K8ac peptide = molecular target: H4K8ac peptide

Kd (H3K14ac peptide): 339 µM | Kd (H3K9ac peptide): 823 µM | Kd (H4K5ac peptide): 925 µM | Kd (H4K8ac peptide): 654 µM
B1: triple Tudor domains (3TD) of Drosophila Eggless/SetDB1, wild type (domain or fragment)
chain: SDYVHEVPPPGEIVRPPIQLGETYYAVKNKAIASWVSIKVIEFTESTAINGNTMKSYKIRYLNTPYQMIKTVTAKHIAYFEPPPVRLTIGTRVIAYFDGTTLSRGKDKGVVQSAFYPGIIAEPLKQANRYRYLIFYDDGYTQYVPHRDVRLVCQASEKVWEDVHAASRDFIQKYVEKYSVDRPMVQCTRGQSMTTESNGTWLYARVIDIDCSLVLMQFEGDKNHTEWIYRGSLRLGPVFRETQNNMNSSSAQQLRVP
